Measured values from the supplement of paper PMC9170038.

Tested on: MS2 coat protein
Experiment: apparent KD of MS2 coat protein; designed switch direction (-1 OFF switch, 1 ON switch): -1; higher = weaker reporter binding
Procedure, shortened: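 The reported apparent KD is a per-design median over clusters, from curve fits of normalised cluster fluorescence. Protein titrations used SNAP-549-labelled MS2 coat protein, doubled from 0.7 or 1.5 nM to 3 µM, in Tris-HCl pH 7.5 buffer with KCl, MgCl2, BSA, DTT, tRNA and Tween-20, with no input, 200 uM small-molecule ligand, or an oligonucleotide input. The RNA switches were transcribed on Illumina chips by stalled E. coli RNA polymerase.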

[1] = input ligand: microRNA oligo, concentration not stated
[2] = Eterna round: R95, input ligand: FMN 200 uM
[3] = Eterna round: R95, input ligand: microRNA oligo, concentration not stated
[4] = Eterna round: R95, input ligand: none

Sequence	apparent KD of MS2 coat protein (input ligand: FMN 200 uM) [nM]	apparent KD of MS2 coat protein [1] [nM]	apparent KD of MS2 coat protein (input ligand: none) [nM]	apparent KD of MS2 coat protein [2] [nM]	apparent KD of MS2 coat protein [3] [nM]	apparent KD of MS2 coat protein [4] [nM]
CAGUACUGAGGAUAUACAUGAGGAUCACCCAUGUGUUCCAGCUGGGAAACUAGCAAAAGUAGAAGGCAGUACUG [salish99_ex3_r3_076] (Eterna round: R96, puzzle: Exclusion 3)	287	21.4	21.8			
ACAUGACUGCUAGGAUAUAGAUGACAUGAGGAUCACCCAUGUUGUCCCAUGUUUAUGGAAACGGACUAGAAGGAGCAGCAUAUG [Ex NG2 #12] (Eterna round: R96, puzzle: Exclusion NG 2)	25.7	24.8	30.2			
ACUUACUGAGGAUAUACUUAGAUUUACAUGAGGAUCACCCAUGUUCCUCUAUGUAUAUAUGUAGAAGGCAGAAGUU [Mat - Exclusion 5 - JL Mod - D49] (Eterna round: R97, puzzle: Exclusion 5)	216		38.1			
UCGUGGUUACGCUGCAGUUGCCUGAGCGGAGGCUCUGUGACAUGAGGAUCACCCAUGUAGCUUUUUGCUCAUCUUAA [JR_SV3TOV2_Sub040] (puzzle: Sensor v3, turn-off variant 2)				25.2	39.9	24.6
GGCAGACAUGAGGAUCACCCAUGUCAGGAUAUGGUGCGAUCGUCGAAAGACGAUAGCACCAGAAGGGACAUGCC [Eli x1 4.03] (Eterna round: R97, puzzle: Exclusion 1)	30.5		19.1			
UGUGGGUCAGGAUAUUCUAUUUAUUACAUGAGGAUCACCCAUGUGAAUGUACAAGGGUGUGAAGAAGGGACUUGUG [LRO-Excl5-02-mod A17d by Omei] (Eterna round: R97, puzzle: Exclusion 5)	793		2360			
UCAAGCUUUAAGCGUGUGAACAUGAGGAUCACCCAUGUAUUUUAGGUAAUAAGUUCUUUUAUGUAUUCUCGUCUUAU [JR_SWV3TOV1_Sub094] (puzzle: Sensor v3, turn-off variant 1)				114	39.1	136
CGGCAUGUAGAAGGAUAUCUGCACGAUUAGUGCAGAGAAGGUCUAACAUGAGGAUCACCCAUGUAGAUCAUUAACCGAUUAAUU [ENG1/8-A1] (Eterna round: R96, puzzle: Exclusion NG 1)	21.9	10.7	12			
UUUUAACAUGAGGAUCACCCAUGUGAGGAUAUCGAAAUUUAUAUUAAUAUUAUUUUAUCGAGAAGGCACAUUUU [JMF 48] (puzzle: Exclusion 1)					122	
GUAUCGUGAGGAUAUCAUGAUUGACUUUUGUUUUGUCAGCGUGAGAAGGCACAUGAGGAUCACCCAUGUGAUUA [Ex4 - 3 - 9] (puzzle: Exclusion 4)					22.3	
UAAGUUUACCGAGGAUAUGGUCAAUAAUUAUGACCAGAAGGCGGACUCAACAUGAGGAUCACCCAUGUAUAAAGGGUAAUUGGU [JR_ExcNG1_Sub047] (Eterna round: R96, puzzle: Exclusion NG 1)	154	110	90.8			
UAGCUUCCGGUCAGGAUAUACGCUGGCGAAUAGCAGUAGAAGGGACAUGAGGAUCACCCAUGUGGGUUCAAAGA [Zabetima] (puzzle: Brourd's mod of Exclusion 4)				91	39.4	44.2
CCUAGGUUAGGAUAUCUCGAUGUGGCAAAGGGUCCAUAUCGGGAGAAGGAACAUGAGGAUCACCCAUGUGGAGC [Eternabot (Original) Solution 42] (Eterna round: R97, puzzle: Exclusion 4)	159		57			
CUUUUGUGAGGAUAUCAGGUGUGCUAGCGUACUGGUACAUCUGAGAAGGCACAUGAGGAUCACCCAUGUUCCUC [JL-ex4-3.17 Brourd mod] (puzzle: Exclusion 4)					39.1	
